From patent US20030119090

Legend:
[1] = biological target: T1, Boc-Tyr-Thr(α-Man)-Val-OMe (Compound 10)
T1 chain: YTV

[2] = biological target: T2, Cbz-Thr(α-Man)-Val-Gly-Ala-NH2 (Compound 9)
T2 chain: TVGA

[3] = biological target: T3, Cbz-Thr(α-Man)-Val-OMe (Compound 7)
T3 chain: TV

[4] = biological target: T4, Cbz-Thr(αManα1,2Man)-Val-OMe (Compound 11)
T4 chain: TV

[5] = biological target: T5, Thr(α-Man)-Val-OMe (Compound 8)
T5 chain: TV

B1: recombinant α1,2-mannosyltransferase (soluble catalytic domain, protein sequence 31-442 of α1,2-ManT from S. cerevisiae, expressed from pManflag20 in the E. … (protein)
chain: RTQQYIPSSISAAFDFTSGSISPEQQVISEENDAKKLEQSALNSEASEDSEAMDEESKALKAAAEKADAPIDTKTTMDYITPSFANKAGKPKACYVTLVRNKELKGLLSSIKYVENKINKKFPYPWVFLNDEPFTEEFKEAVTKAVSSEVKFGILPKEHWSYPEWINQTKAAEIRADAATKYIYGGSESYRHMCRYQSGFFWRHELLEEYDWYWRVEPDIKLYCDINYDVFKWMQENEKVYGFTVSIHEYEVTIPTLWQTSMDFIKKNPEYLDENNLMSFLSNDNGKTYNLCHFWSNFEIANLNLWRSPAYREYFDTLDHQGGFFYERWGDAPVHSIAAALFLPKDKIHYFSDIGYHHPPYDNCPLDKEVYNSNNCECDQGNDFTFQGYSCGKEYYDAQGLVKPKNWKKFRE
Q: With B1 as the protein, how does the Km (acceptor), mannosyl transfer reaction [1] read?
A: 0.7 mM

Q: And the “Km, fold lower than that of Compound 7” value [1]?
A: This value is 10 times less than that of Compound 7

Q: And the “Km, fold lower than that of ManαOMe (Compound 1)” value [1]?
A: 80 times smaller than that of ManαOMe (Compound 1)

Q: And the Vrelative (ratio of Vmax, ManαOMe = 1.0), mannosyl transfer from GDP-Man to acceptor [1]?
A: 0.35

Q: And the Vrelative (ratio of Vmax, ManαOMe = 1.0), mannosyl transfer from GDP-Man to acceptor [2]?
A: 0.55

Q: What about the Km (acceptor), mannosyl transfer reaction [3] of the same protein?
A: 7.8 mM

Q: What about the Vrelative (ratio of Vmax, ManαOMe = 1.0), mannosyl transfer from GDP-Man to acceptor [3] of the same protein?
A: 0.71

Q: What about the Km (acceptor), mannosyl transfer reaction [4] of the same protein?
A: 26 mM

Q: What about the Vrelative (ratio of Vmax, ManαOMe = 1.0), mannosyl transfer from GDP-Man to acceptor [4] of the same protein?
A: 0.17

Q: And the Vrelative (ratio of Vmax, ManαOMe = 1.0), mannosyl transfer from GDP-Man to acceptor [5]?
A: 0.68
